Data published in US6541450B1, “Parathyroid hormone analogues for the treatment of osteoporosis” (National Research Council of Canada, priority 1994, dated 2003).
Entries after “also recorded” stand apart in the source; their conditions may differ. Where a SMILES comes first, the peptide text is derived from it. Bridges are numbered along the chain shown (N, C = ends). Where no end group is shown, it is not given here. [ ]: non-standard residue; d: D form. Nle = CCCC[C@H](N)C(=O)O

B1: cyclo(Glu^22-Lys^26)-hPTH-(1-31)-NH2 (peptide)
peptide: SVSEIQLMHNLGKHLNSMERVEWLRKKLQDV-NH2
modifications: lactam 22-26; N-terminus assumed
SMILES: CC[C@H](C)[C@H](NC(=O)[C@H](CCC(=O)O)NC(=O)[C@H](CO)NC(=O)[C@@H](NC(=O)[C@@H](N)CO)C(C)C)C(=O)N[C@@H](CCC(N)=O)C(=O)N[C@@H](CC(C)C)C(=O)N[C@@H](CCSC)C(=O)N[C@@H](Cc1c[nH]cn1)C(=O)N[C@@H](CC(N)=O)C(=O)N[C@@H](CC(C)C)C(=O)NCC(=O)N[C@@H](CCCCN)C(=O)N[C@@H](Cc1c[nH]cn1)C(=O)N[C@@H](CC(C)C)C(=O)N[C@@H](CC(N)=O)C(=O)N[C@@H](CO)C(=O)N[C@@H](CCSC)C(=O)N[C@@H](CCC(=O)O)C(=O)N[C@@H](CCCNC(=N)N)C(=O)N[C@H](C(=O)N[C@H]1CCC(=O)NCCCC[C@@H](C(=O)N[C@@H](CCCCN)C(=O)N[C@@H](CC(C)C)C(=O)N[C@@H](CCC(N)=O)C(=O)N[C@@H](CC(=O)O)C(=O)N[C@H](C(N)=O)C(C)C)NC(=O)[C@H](CCCNC(=N)N)NC(=O)[C@H](CC(C)C)NC(=O)[C@H](Cc2c[nH]c3ccccc23)NC1=O)C(C)C
B2: [Ala^27]cyclo(Glu^22-Lys^26)-hPTH-(1-31)-NH2 (peptide)
peptide: SVSEIQLMHNLGKHLNSMERVEWLRKALQDV-NH2
modifications: lactam 22-26; N-terminus assumed
SMILES: CC[C@H](C)[C@H](NC(=O)[C@H](CCC(=O)O)NC(=O)[C@H](CO)NC(=O)[C@@H](NC(=O)[C@@H](N)CO)C(C)C)C(=O)N[C@@H](CCC(N)=O)C(=O)N[C@@H](CC(C)C)C(=O)N[C@@H](CCSC)C(=O)N[C@@H](Cc1c[nH]cn1)C(=O)N[C@@H](CC(N)=O)C(=O)N[C@@H](CC(C)C)C(=O)NCC(=O)N[C@@H](CCCCN)C(=O)N[C@@H](Cc1c[nH]cn1)C(=O)N[C@@H](CC(C)C)C(=O)N[C@@H](CC(N)=O)C(=O)N[C@@H](CO)C(=O)N[C@@H](CCSC)C(=O)N[C@@H](CCC(=O)O)C(=O)N[C@@H](CCCNC(=N)N)C(=O)N[C@H](C(=O)N[C@H]1CCC(=O)NCCCC[C@@H](C(=O)N[C@@H](C)C(=O)N[C@@H](CC(C)C)C(=O)N[C@@H](CCC(N)=O)C(=O)N[C@@H](CC(=O)O)C(=O)N[C@H](C(N)=O)C(C)C)NC(=O)[C@H](CCCNC(=N)N)NC(=O)[C@H](CC(C)C)NC(=O)[C@H](Cc2c[nH]c3ccccc23)NC1=O)C(C)C
B3: [Ile^27]cyclo(Glu^22-Lys^26)-hPTH-(1-31)-NH2 (peptide)
peptide: SVSEIQLMHNLGKHLNSMERVEWLRKILQDV-NH2
modifications: lactam 22-26; N-terminus assumed
SMILES: CC[C@H](C)[C@H](NC(=O)[C@@H]1CCCCNC(=O)CC[C@H](NC(=O)[C@@H](NC(=O)[C@H](CCCNC(=N)N)NC(=O)[C@H](CCC(=O)O)NC(=O)[C@H](CCSC)NC(=O)[C@H](CO)NC(=O)[C@H](CC(N)=O)NC(=O)[C@H](CC(C)C)NC(=O)[C@H](Cc2c[nH]cn2)NC(=O)[C@H](CCCCN)NC(=O)CNC(=O)[C@H](CC(C)C)NC(=O)[C@H](CC(N)=O)NC(=O)[C@H](Cc2c[nH]cn2)NC(=O)[C@H](CCSC)NC(=O)[C@H](CC(C)C)NC(=O)[C@H](CCC(N)=O)NC(=O)[C@@H](NC(=O)[C@H](CCC(=O)O)NC(=O)[C@H](CO)NC(=O)[C@@H](NC(=O)[C@@H](N)CO)C(C)C)[C@@H](C)CC)C(C)C)C(=O)N[C@@H](Cc2c[nH]c3ccccc23)C(=O)N[C@@H](CC(C)C)C(=O)N[C@@H](CCCNC(=N)N)C(=O)N1)C(=O)N[C@@H](CC(C)C)C(=O)N[C@@H](CCC(N)=O)C(=O)N[C@@H](CC(=O)O)C(=O)N[C@H](C(N)=O)C(C)C
B4: [Nle^27]cyclo(Glu^22-Lys^26)-hPTH-(1-31)-NH2 (peptide)
peptide: SVSEIQLMHNLGKHLNSMERVEWLRK[Nle]LQDV-NH2
modifications: lactam 22-26; N-terminus assumed
SMILES: CCCC[C@H](NC(=O)[C@@H]1CCCCNC(=O)CC[C@H](NC(=O)[C@@H](NC(=O)[C@H](CCCNC(=N)N)NC(=O)[C@H](CCC(=O)O)NC(=O)[C@H](CCSC)NC(=O)[C@H](CO)NC(=O)[C@H](CC(N)=O)NC(=O)[C@H](CC(C)C)NC(=O)[C@H](Cc2c[nH]cn2)NC(=O)[C@H](CCCCN)NC(=O)CNC(=O)[C@H](CC(C)C)NC(=O)[C@H](CC(N)=O)NC(=O)[C@H](Cc2c[nH]cn2)NC(=O)[C@H](CCSC)NC(=O)[C@H](CC(C)C)NC(=O)[C@H](CCC(N)=O)NC(=O)[C@@H](NC(=O)[C@H](CCC(=O)O)NC(=O)[C@H](CO)NC(=O)[C@@H](NC(=O)[C@@H](N)CO)C(C)C)[C@@H](C)CC)C(C)C)C(=O)N[C@@H](Cc2c[nH]c3ccccc23)C(=O)N[C@@H](CC(C)C)C(=O)N[C@@H](CCCNC(=N)N)C(=O)N1)C(=O)N[C@@H](CC(C)C)C(=O)N[C@@H](CCC(N)=O)C(=O)N[C@@H](CC(=O)O)C(=O)N[C@H](C(N)=O)C(C)C
B5: [Nle^8,18, Leu^27]cyclo(Glu^22-Lys^26)-hPTH-(1-31)-NH2 (peptide)
peptide: SVSEIQL[Nle]HNLGKHLNS[Nle]ERVEWLRKLLQDV-NH2
modifications: lactam 22-26; N-terminus assumed
SMILES: CCCC[C@H](NC(=O)[C@H](CO)NC(=O)[C@H](CC(N)=O)NC(=O)[C@H](CC(C)C)NC(=O)[C@H](Cc1c[nH]cn1)NC(=O)[C@H](CCCCN)NC(=O)CNC(=O)[C@H](CC(C)C)NC(=O)[C@H](CC(N)=O)NC(=O)[C@H](Cc1c[nH]cn1)NC(=O)[C@H](CCCC)NC(=O)[C@H](CC(C)C)NC(=O)[C@H](CCC(N)=O)NC(=O)[C@@H](NC(=O)[C@H](CCC(=O)O)NC(=O)[C@H](CO)NC(=O)[C@@H](NC(=O)[C@@H](N)CO)C(C)C)[C@@H](C)CC)C(=O)N[C@@H](CCC(=O)O)C(=O)N[C@@H](CCCNC(=N)N)C(=O)N[C@H](C(=O)N[C@H]1CCC(=O)NCCCC[C@@H](C(=O)N[C@@H](CC(C)C)C(=O)N[C@@H](CC(C)C)C(=O)N[C@@H](CCC(N)=O)C(=O)N[C@@H](CC(=O)O)C(=O)N[C@H](C(N)=O)C(C)C)NC(=O)[C@H](CCCNC(=N)N)NC(=O)[C@H](CC(C)C)NC(=O)[C@H](Cc2c[nH]c3ccccc23)NC1=O)C(C)C
B6: α-acetyl-[Leu^27]cyclo(Glu^22-Lys^26)-hPTH-(1-31)-NH2 (peptide)
peptide: Ac-SVSEIQLMHNLGKHLNSMERVEWLRKLLQDV-NH2
modifications: lactam 22-26
SMILES: CC[C@H](C)[C@H](NC(=O)[C@H](CCC(=O)O)NC(=O)[C@H](CO)NC(=O)[C@@H](NC(=O)[C@H](CO)NC(C)=O)C(C)C)C(=O)N[C@@H](CCC(N)=O)C(=O)N[C@@H](CC(C)C)C(=O)N[C@@H](CCSC)C(=O)N[C@@H](Cc1c[nH]cn1)C(=O)N[C@@H](CC(N)=O)C(=O)N[C@@H](CC(C)C)C(=O)NCC(=O)N[C@@H](CCCCN)C(=O)N[C@@H](Cc1c[nH]cn1)C(=O)N[C@@H](CC(C)C)C(=O)N[C@@H](CC(N)=O)C(=O)N[C@@H](CO)C(=O)N[C@@H](CCSC)C(=O)N[C@@H](CCC(=O)O)C(=O)N[C@@H](CCCNC(=N)N)C(=O)N[C@H](C(=O)N[C@H]1CCC(=O)NCCCC[C@@H](C(=O)N[C@@H](CC(C)C)C(=O)N[C@@H](CC(C)C)C(=O)N[C@@H](CCC(N)=O)C(=O)N[C@@H](CC(=O)O)C(=O)N[C@H](C(N)=O)C(C)C)NC(=O)[C@H](CCCNC(=N)N)NC(=O)[C@H](CC(C)C)NC(=O)[C@H](Cc2c[nH]c3ccccc23)NC1=O)C(C)C
B7: [Tyr^27]cyclo(Glu^22-Lys^26)-hPTH-(1-31)-NH2 (peptide)
peptide: SVSEIQLMHNLGKHLNSMERVEWLRKYLQDV-NH2
modifications: lactam 22-26; N-terminus assumed
SMILES: CC[C@H](C)[C@H](NC(=O)[C@H](CCC(=O)O)NC(=O)[C@H](CO)NC(=O)[C@@H](NC(=O)[C@@H](N)CO)C(C)C)C(=O)N[C@@H](CCC(N)=O)C(=O)N[C@@H](CC(C)C)C(=O)N[C@@H](CCSC)C(=O)N[C@@H](Cc1c[nH]cn1)C(=O)N[C@@H](CC(N)=O)C(=O)N[C@@H](CC(C)C)C(=O)NCC(=O)N[C@@H](CCCCN)C(=O)N[C@@H](Cc1c[nH]cn1)C(=O)N[C@@H](CC(C)C)C(=O)N[C@@H](CC(N)=O)C(=O)N[C@@H](CO)C(=O)N[C@@H](CCSC)C(=O)N[C@@H](CCC(=O)O)C(=O)N[C@@H](CCCNC(=N)N)C(=O)N[C@H](C(=O)N[C@H]1CCC(=O)NCCCC[C@@H](C(=O)N[C@@H](Cc2ccc(O)cc2)C(=O)N[C@@H](CC(C)C)C(=O)N[C@@H](CCC(N)=O)C(=O)N[C@@H](CC(=O)O)C(=O)N[C@H](C(N)=O)C(C)C)NC(=O)[C@H](CCCNC(=N)N)NC(=O)[C@H](CC(C)C)NC(=O)[C@H](Cc2c[nH]c3ccccc23)NC1=O)C(C)C

Experiments:
[1] = tested on: anesthetized female Sprague-Dawley rats; test: Hypotensive effect, tail artery pressure in anaesthetized rats
Procedure: Female Sprague-Dawley rats (weighing over 290 g) were anaesthetized with intraperitoneally injected sodium pentobarbital (65 mg/kg body weight). Rectal temperature was monitored with a YS1402 thermistor (Yellow Springs Instrument Co., Inc. Yellow Springs, Ohio) and maintained between 36.0 and 38.5° C. throughout the experiment. Ear pinna temperature was also monitored using a YSi banjo thermistor. The tail artery was exposed to cannulated with a Jelco 25-gIV catheter (Johnson and Johnson Medical Inc., Arlington, Tex.) and connected to a Statham pressure transducer, the signals from which were recorded digitally with a Biopac Systems MP100 Monitor (Harvard Instruments, Saint Laurent, QC, Canada). For intravenous injection of PTH or one of its fragments, a femoral vein was also exposed. After surgery, the rat was allowed to stabilize for 8 min after which PTH or one of its fragments (dissolved in acidified saline containing 0.001 N HCl) was injected into the femoral vein or under the skin of the abdomen. Data were collected for 12 min after intravenous injection or for 22 min after subcutaneous injection.

[2] = molecular target: PTH receptor (rat (ROS 17/2 rat osteosarcoma cell …, UniProt P25961)); test: cell-based or functional assay
[3] = intravenous, 0.8 nmol/100 g of body weight

Molecule	Adenylyl Cyclase (EC50) [2] [nM]	further results
CC[C@H](C)[C@H](NC(=O)[C@H](CCC(=O)O)NC(=O)[C@H](CO)NC(=O)[C@@H](NC(=O)[C@@H](N)CO)C(C)C)C(=O)N[C@@H](CCC(N)=O)C(=O)N[C@@H](CC(C)C)C(=O)N[C@@H](CCSC)C(=O)N[C@@H](Cc1c[nH]cn1)C(=O)N[C@@H](CC(N)=O)C(=O)N[C@@H](CC(C)C)C(=O)NCC(=O)N[C@@H](CCCCN)C(=O)N[C@@H](Cc1c[nH]cn1)C(=O)N[C@@H](CC(C)C)C(=O)N[C@@H](CC(N)=O)C(=O)N[C@@H](CO)C(=O)N[C@@H](CCSC)C(=O)N[C@@H](CCC(=O)O)C(=O)N[C@@H](CCCNC(=N)N)C(=O)N[C@H](C(=O)N[C@H]1CCC(=O)NCCCC[C@@H](C(=O)N[C@@H](CC(C)C)C(=O)N[C@@H](CC(C)C)C(=O)N[C@@H](CCC(N)=O)C(=O)N[C@@H](CC(=O)O)C(N)=O)NC(=O)[C@H](CCCNC(=N)N)NC(=O)[C@H](CC(C)C)NC(=O)[C@H](Cc2c[nH]c3ccccc23)NC1=O)C(C)C [compound 8, [Leu^27]cyclo(Glu^22Lys^26)-hPTH-(1-30)-NH2] (H-SVSEIQLMHNLGKHLNSMERVEWLRKLLQD-NH2; lactam 22-26)	–	total blood pressure drop versus other analogues ([1]; subcutaneously or intravenously, 0.8 nmol/100 g of body weight): not significantly different (p>0.05)
hPTH-(7-84) [reference compound]	–	hypotensive action, in words ([1]; intravenous injection): not significantly hypotensive; also recorded: did not significantly affect tail artery pressure; reduction of tail artery pressure [1, 3]: 3.28±1.0 mm Hg; time to maximum drop in tail artery pressure [1, 3]: 9.8 ± 2.0 min
B1	17	–
B2	9	–
B3	9	–
SVSEIQLMHNLGKHLNSMERVEWLRKKLQDV-NH2 [hPTH-(1-31)-NH2]	20	–
B4	9	–
B5	6	–
B6	24	–
B7	9	–
